± gives the standard deviation of the averaged measurements.
Experiment: total protein half-life in vivo (active degradation + dilution); higher = more stable protein
[1] = E. coli NCM3722 delta-clpP, growth: N-lim chemostat, doubling time 6 h
[2] = E. coli NCM3722 delta-hslV, growth: N-lim chemostat, doubling time 6 h
[3] = E. coli NCM3722 delta-lon, growth: N-lim chemostat, doubling time 6 h
[4] = E. coli NCM3722 delta-smpB, growth: N-lim chemostat, doubling time 6 h
[5] = wild type E. coli NCM3722, growth: C-lim chemostat, doubling time 3 h
[6] = wild type E. coli NCM3722, growth: C-lim chemostat, doubling time 6 h
[7] = wild type E. coli NCM3722, growth: C-lim chemostat, doubling time 12 h
[8] = wild type E. coli NCM3722, growth: N-lim chemostat, doubling time 6 h
[9] = wild type E. coli NCM3722, growth: N-lim chemostat, doubling time 12 h
[10] = wild type E. coli NCM3722, growth: P-lim chemostat, doubling time 6 h
[11] = wild type E. coli NCM3722, growth: P-lim chemostat, doubling time 12 h
[12] = E. coli NCM3722 delta-clpP delta-lon delta-hslV, growth: N-lim chemostat, doubling time 6 h

Row | Sequence | total protein half-life in vivo [1] | total protein half-life in vivo [2] | total protein half-life in vivo [3] | total protein half-life in vivo [4] | total protein half-life in vivo [5] | total protein half-life in vivo [6] | total protein half-life in vivo [7] | total protein half-life in vivo [8] | total protein half-life in vivo [9] | total protein half-life in vivo [10] | total protein half-life in vivo [11] | total protein half-life in vivo [12]
1 | MSSVDILVPDLPESVADATVATWHKKPGDAVVRDEVLVEIETDKVVLEVPASADGILDAVLEDEGTTVTSRQILGRLREGNSAGKETSAKSEEKASTPAQRQQASLEEQNNDALSPAIRRLLAEHNLDASAIKGTGVGGRLTREDVEKHLAKAPAKESAPAAAAPAAQPALAARSEKRVPMTRLRKRVAERLLEAKNSTAMLTTFNEVNMKPIMDLRKQYGEAFEKRHGIRLGFMSFYVKAVVEALKRYPEVNASIDGDDVVYHNYFDVSMAVSTPRGLVTPVLRDVDTLGMADIEKKIKELAVKGRDGKLTVEDLTGGNFTITNGGVFGSLMSTPIINPPQSAILGMHAIKDRPMAVNGQVEILPMMYLALSYDHRLIDGRESVGFLVTIKELLEDPTRLLLDV [P0AFG6] | 6.24 ± 0.17 h | 5.462 ± 0.018 h | 5.45 ± 0.14 h | 4.93 ± 0.068 h | 2.97 ± 0.23 h | 5.7 ± 0.27 h | 11.3 ± 0.7 h | 5.17 ± 0.35 h | 11 ± 2.5 h | 5.72 ± 0.087 h | 12 ± 1.1 h | 
2 | MSTANQKPTESVSLNAFKQPKAFYLIFSIELWERFGYYGLQGIMAVYLVKQLGMSEADSITLFSSFSALVYGLVAIGGWLGDKVLGTKRVIMLGAIVLAIGYALVAWSGHDAGIVYMGMAAIAVGNGLFKANPSSLLSTCYEKNDPRLDGAFTMYYMSVNIGSFFSMIATPWLAAKYGWSVAFALSVVGLLITIVNFAFCQRWVKQYGSKPDFEPINYRNLLLTIIGVVALIAIATWLLHNQEVARMALGVVAFGIVVIFGKEAFAMKGAARRKMIVAFILMLEAIIFFVLYSQMPTSLNFFAIRNVEHSILGLAVEPEQYQALNPFWIIIGSPILAAIYNKMGDTLPMPTKFAIGMVMCSGAFLILPLGAKFASDAGIVSVSWLVASYGLQSIGELMISGLGLAMVAQLVPQRLMGFIMGSWFLTTAGANLIGGYVAGMMAVPDNVTDPLMSLEVYGRVFLQIGVATAVIAVLMLLTAPKLHRMTQDDAADKAAKAAVA |  |  |  |  |  |  |  |  | 4.49 h |  |  | 
3 | MSTDNKQSLPAITLAAIGVVYGDIGTSPLYTLRECLSGQFGFGVERDAVFGFLSLIFWLLIFVVSIKYLTFVMRADNAGEGGILTLMSLAGRNTSARTTSMLVIMGLIGGSFFYGEVVITPAISVMSAIEGLEIVAPQLDTWIVPLSIIVLTLLFMIQKHGTAMVGKLFAPIMLTWFLILAGLGLRSIIANPEVLHALNPMWAVHFFLEYKTVSFIALGAVVLSITGVEALYADMGHFGKFPIRLAWFTVVLPSLTLNYFGQGALLLKNPEAIKNPFFLLAPDWALIPLLIIAALATVIASQAVISGVFSLTRQAVRLGYLSPMRIIHTSEMESGQIYIPFVNWMLYVAVVIVIVSFEHSSNLAAAYGIAVTGTMVLTSILSTTVARQNWHWNKYFVALILIAFLCVDIPLFTANLDKLLSGGWLPLSLGTVMFIVMTTWKSERFRLLRRMHEHGNSLEAMIASLEKSPPVRVPGTAVYMSRAINVIPFALMHNLKHNKVLHERVILLTLRTEDAPYVHNVRRVQIEQLSPTFWRVVASYGWRETPNVEEVFHRCGLEGLSCRMMETSFFMSHESLILGKRPWYLRLRGKLYLLLQRNALRAPDQFEIPPNRVIELGTQVEI |  | 6.21 h | 6.28 ± 0.53 h | 5.9 ± 0.4 h |  | 6.79 ± 0.6 h | 14.2 ± 1.2 h | 6.28 ± 1 h | 12.17 ± 0.096 h | 6.43 ± 0.26 h | 12.6 ± 0.69 h | 7.06 ± 1.1 h
4 | MSTIIMDLCSYTRLGLTGYLLSRGVKKREINDIETVDDLAIACDSQRPSVVFINEDCFIHDASNSQRIKLIINQHPNTLFIVFMAIANVHFDEYLLVRKNLLISSKSIKPESLDDILGDILKKETTITSFLNMPTLSLSRTESSMLRMWMAGQGTIQISDQMNIKAKTVSSHKGNIKRKIKTHNKQVIYHVVRLTDNVTNGIFVNMR [P0DMC9] |  |  | 1 ± 0.029 h | 1.51 ± 0.036 h |  |  |  |  |  |  |  | 5.4 ± 0.66 h
5 | MSTITLLCIALAGVIMLLLLVIKAKVQPFVALLLVSLLVALAAGIPAGEVGKVMIAGMGGVLGSVTIIIGLGAMLGRMIEHSGGAESLANYFSRKLGDKRTIAALTLAAFFLGIPVFFDVGFIILAPIIYGFAKVAKISPLKFGLPVAGIMLTVHVAVPPHPGPVAAAGLLHADIGWLTIIGIAISIPVGVVGYFAAKIINKRQYAMSVEVLEQMQLAPASEEGATKLSDKINPPGVALVTSLIVIPIAIIMAGTVSATLMPPSHPLLGTLQLIGSPMVALMIALVLAFWLLALRRGWSLQHTSDIMGSALPTAAVVILVTGAGGVFGKVLVESGVGKALANMLQMIDLPLLPAAFIISLALRASQGSATVAILTTGGLLSEAVMGLNPIQCVLVTLAACFGGLGASHINDSGFWIVTKYLGLSVADGLKTWTVLTTILGFTGFLITWCVWAVI |  |  |  |  |  |  | 15.2 h |  |  |  |  | 
6 | MSTLEQTIGNTPLVKLQRMGPDNGSEVWLKLEGNNPAGSVKDRAALSMIVEAEKRGEIKPGDVLIEATSGNTGIALAMIAALKGYRMKLLMPDNMSQERRAAMRAYGAELILVTKEQGMEGARDLALEMANRGEGKLLDQFNNPDNPYAHYTTTGPEIWQQTGGRITHFVSSMGTTGTITGVSRFMREQSKPVTIVGLQPEEGSSIPGIRRWPTEYLPGIFNASLVDEVLDIHQRDAENTMRELAVREGIFCGVSSGGAVAGALRVAKANPDAVVVAIICDRGDRYLSTGVFGEEHFSQGAGI | 4.5 ± 0.098 h | 4.55 ± 0.61 h | 4.81 ± 0.087 h | 4.19 ± 0.058 h | 2.95 ± 0.34 h | 6.01 ± 0.21 h | 10.2 ± 0.28 h | 4.66 ± 0.086 h | 7.44 ± 0.39 h | 5.64 ± 0.13 h | 11.6 ± 0.56 h | 6.17 ± 1.7 h
7 | MSTPDFSTAENNQELANEVSCLKAMLTLMLQAMGQADAGRVMLKMEKQLALIEDETQAAVFSKTVKQIKQAYRQ [P0AD07] |  |  |  |  |  |  |  |  |  |  | 7.56 ± 2.9 h | 
8 | MSTPLQGIKVLDFTGVQSGPSCTQMLAWFGADVIKIERPGVGDVTRHQLRDIPDIDALYFTMLNSNKRSIELNTKTAEGKEVMEKLIREADILVENFHPGAIDHMGFTWEHIQEINPRLIFGSIKGFDECSPYVNVKAYENVAQAAGGAASTTGFWDGPPLVSAAALGDSNTGMHLLIGLLAALLHREKTGRGQRVTMSMQDAVLNLCRVKLRDQQRLDKLGYLEEYPQYPNGTFGDAVPRGGNAGGGGQPGWILKCKGWETDPNAYIYFTIQEQNWENTCKAIGKPEWITDPAYSTAHARQPHIFDIFAEIEKYTVTIDKHEAVAYLTQFDIPCAPVLSMKEISLDPSLRQSGSVVEVEQPLRGKYLTVGCPMKFSAFTPDIKAAPLLGEHTAAVLQELGYSDDEIAAMKQNHAI |  |  |  |  |  |  |  |  |  | 5.48 h |  | 
9 | MSTPRQILAAIFDMDGLLIDSEPLWDRAELDVMASLGVDISRRNELPDTLGLRIDMVVDLWYARQPWNGPSRQEVVERVIARAISLVEETRPLLPGVREAVALCKEQGLLVGLASASPLHMLEKVLTMFDLRDSFDALASAEKLPYSKPHPQVYLDCAAKLGVDPLTCVALEDSVNGMIASKAARMRSIVVPAPEAQNDPRFVLADVKLSSLTELTAKDLLG | 5.14 ± 0.84 h | 4.544 ± 0.045 h | 5.444 ± 0.011 h | 4.27 ± 0.18 h | 2.99 ± 0.3 h | 5.48 ± 0.35 h | 12.1 ± 3 h | 4.47 ± 0.14 h | 8.91 ± 1.3 h | 5.65 ± 0.52 h | 12.3 ± 0.28 h | 4.76 ± 0.9 h
10 | MSTQLDPTQLAIEFLRRDQSNLSPAQYLKRLKQLELEFADLLTLSSAELKEEIYFAWRLGVH | 3.08 ± 0.39 h |  | 2.3 h | 1.29 h |  |  | 1.9 h | 0.632 h | 1.08 h |  | 0.514 h | 5.63 ± 0.47 h
11 | MSTQYETQGYTINNAGRRLVVDPITRIEGHMRCEVNINDQNVITNAVSCGTMFRGLEIILQGRDPRDAWAFVERICGVCTGVHALASVYAIEDAIGIKVPDNANIIRNIMLATLWCHDHLVHFYQLAGMDWIDVLDALKADPRKTSELAQSLSSWPKSSPGYFFDVQNRLKKFVEGGQLGIFRNGYWGHPQYKLPPEANLMGFAHYLEALDFQREIVKIHAVFGGKNPHPNWIVGGMPCAINIDESGAVGAVNMERLNLVQSIITRTADFINNVMIPDALAIGQFNKPWSEIGTGLSDKCVLSYGAFPDIANDFGEKSLLMPGGAVINGDFNNVLPVDLVDPQQVQEFVDHAWYRYPNDQVGRHPFDGITDPWYNPGDVKGSDTNIQQLNEQERYSWIKAPRWRGNAMEVGPLARTLIAYHKGDAATVESVDRMMSALNLPLSGIQSTLGRILCRAHEAQWAAGKLQYFFDKLMTNLKNGNLATASTEKWEPATWPTECRGVGFTEAPRGALGHWAAIRDGKIDLYQCVVPTTWNASPRDPKGQIGAYEAALMNTKMAIPEQPLEILRTLHSFDPCLACSTHVLGDDGSELISVQVR [P0ACD8] |  |  |  |  |  |  |  |  |  |  |  | 4.51 ± 0.84 h
12 | MSTTHNVPQGDLVLRTLAMPADTNANGDIFGGWLMSQMDIGGAILAKEIAHGRVVTVRVEGMTFLRPVAVGDVVCCYARCVQKGTTSVSINIEVWVKKVASEPIGQRYKATEALFKYVAVDPEGKPRALPVE [P0A8Z0] | 5.16 ± 0.9 h | 5.24 ± 0.38 h | 5.86 ± 0.43 h | 5 ± 0.31 h | 2.93 ± 0.13 h | 5.72 ± 0.64 h | 11.1 ± 0.23 h | 5.6 ± 0.096 h | 10.1 ± 0.37 h | 5.8 ± 0.5 h | 13.3 ± 0.14 h | 5.03 ± 0.4 h

— the supplement of paper PMC11246515
